Patent publication EP4692118A1

Columns and labels:
[1] = target: ADAM9 on human tumour cells (LS174T, HepG2, Calu-3, Colo205) (human) (UniProt Q13443); assay: flow cytometry on HepG2 cells, 0.976563 nM, negative control
[2] = target: ADAM9 on human tumour cells (LS174T, HepG2, Calu-3, Colo205) (human) (UniProt Q13443); assay: flow cytometry on HepG2 cells, 3.906250 nM, negative control
[3] = target: ADAM9 on human tumour cells (LS174T, HepG2, Calu-3, Colo205) (human) (UniProt Q13443); assay: flow cytometry on LS174T cells, 1000 nM, negative control
[4] = target: ADAM9 on human tumour cells (LS174T, HepG2, Calu-3, Colo205) (human) (UniProt Q13443); assay: flow cytometry on HepG2 cells, 62.5 nM, negative control
[5] = target: ADAM9 on human tumour cells (LS174T, HepG2, Calu-3, Colo205) (human) (UniProt Q13443); assay: flow cytometry on LS174T cells, 0.976563 nM, negative control
[6] = target: ADAM9 on human tumour cells (LS174T, HepG2, Calu-3, Colo205) (human) (UniProt Q13443); assay: flow cytometry on HepG2 cells, 0.244141 nM, negative control
[7] = target: ADAM9 on human tumour cells (LS174T, HepG2, Calu-3, Colo205) (human) (UniProt Q13443); assay: flow cytometry on HepG2 cells, 250 nM, negative control
[8] = target: ADAM9 on human tumour cells (LS174T, HepG2, Calu-3, Colo205) (human) (UniProt Q13443); assay: flow cytometry on LS174T cells, 250 nM, negative control
[9] = target: ADAM9 on human tumour cells (LS174T, HepG2, Calu-3, Colo205) (human) (UniProt Q13443); assay: flow cytometry on LS174T cells, 0.000954 nM, negative control
[10] = target: ADAM9 on human tumour cells (LS174T, HepG2, Calu-3, Colo205) (human) (UniProt Q13443); assay: flow cytometry on LS174T cells, 0.015259 nM, negative control
[11] = target: ADAM9 on human tumour cells (LS174T, HepG2, Calu-3, Colo205) (human) (UniProt Q13443); assay: flow cytometry on HepG2 cells, 0.015259 nM, negative control
[12] = target: ADAM9 on human tumour cells (LS174T, HepG2, Calu-3, Colo205) (human) (UniProt Q13443); assay: flow cytometry on HepG2 cells, 15.625 nM, negative control
[13] = target: ADAM9 on human tumour cells (LS174T, HepG2, Calu-3, Colo205) (human) (UniProt Q13443); assay: flow cytometry on LS174T cells, 0.061035 nM, negative control
[14] = target: ADAM9 on human tumour cells (LS174T, HepG2, Calu-3, Colo205) (human) (UniProt Q13443); assay: flow cytometry on HepG2 cells, 0.000954 nM, negative control
[15] = target: ADAM9 on human tumour cells (LS174T, HepG2, Calu-3, Colo205) (human) (UniProt Q13443); assay: flow cytometry on LS174T cells, 0.003815 nM, negative control
[16] = target: ADAM9 on human tumour cells (LS174T, HepG2, Calu-3, Colo205) (human) (UniProt Q13443); assay: flow cytometry on HepG2 cells, 0.000238 nM, negative control
[17] = target: ADAM9 on human tumour cells (LS174T, HepG2, Calu-3, Colo205) (human) (UniProt Q13443); assay: flow cytometry on LS174T cells, 3.906250 nM, negative control
[18] = target: ADAM9 on human tumour cells (LS174T, HepG2, Calu-3, Colo205) (human) (UniProt Q13443); assay: flow cytometry on LS174T cells, 62.5 nM, negative control
[19] = target: ADAM9 on human tumour cells (LS174T, HepG2, Calu-3, Colo205) (human) (UniProt Q13443); assay: flow cytometry on LS174T cells, 0.244141 nM, negative control
[20] = target: ADAM9 on human tumour cells (LS174T, HepG2, Calu-3, Colo205) (human) (UniProt Q13443); assay: flow cytometry on HepG2 cells, 0.061035 nM, negative control
[21] = target: ADAM9 on human tumour cells (LS174T, HepG2, Calu-3, Colo205) (human) (UniProt Q13443); assay: flow cytometry on HepG2 cells, 1000 nM, negative control
[22] = target: ADAM9 on human tumour cells (LS174T, HepG2, Calu-3, Colo205) (human) (UniProt Q13443); assay: flow cytometry on HepG2 cells, 0.003815 nM, negative control
[23] = target: ADAM9 on human tumour cells (LS174T, HepG2, Calu-3, Colo205) (human) (UniProt Q13443); assay: flow cytometry on LS174T cells, 15.625 nM, negative control
[24] = target: ADAM9 on human tumour cells (LS174T, HepG2, Calu-3, Colo205) (human) (UniProt Q13443); assay: flow cytometry on LS174T cells, 0.000954 nM
[25] = target: ADAM9 on human tumour cells (LS174T, HepG2, Calu-3, Colo205) (human) (UniProt Q13443); assay: flow cytometry on LS174T cells, 15.625 nM
[26] = target: ADAM9 on human tumour cells (LS174T, HepG2, Calu-3, Colo205) (human) (UniProt Q13443); assay: flow cytometry on LS174T cells, 0.244141 nM
[27] = target: ADAM9 on human tumour cells (LS174T, HepG2, Calu-3, Colo205) (human) (UniProt Q13443); assay: flow cytometry on LS174T cells, 250 nM
[28] = target: ADAM9 on human tumour cells (LS174T, HepG2, Calu-3, Colo205) (human) (UniProt Q13443); assay: flow cytometry on LS174T cells, 0.015259 nM
[29] = target: ADAM9 on human tumour cells (LS174T, HepG2, Calu-3, Colo205) (human) (UniProt Q13443); assay: flow cytometry on LS174T cells, 1000 nM
[30] = target: ADAM9 on human tumour cells (LS174T, HepG2, Calu-3, Colo205) (human) (UniProt Q13443); assay: flow cytometry on LS174T cells, 0.003815 nM
[31] = target: ADAM9 on human tumour cells (LS174T, HepG2, Calu-3, Colo205) (human) (UniProt Q13443); assay: flow cytometry on LS174T cells, 62.5 nM
[32] = target: ADAM9 on human tumour cells (LS174T, HepG2, Calu-3, Colo205) (human) (UniProt Q13443); assay: flow cytometry on LS174T cells, 0.061035 nM
[33] = target: ADAM9 on human tumour cells (LS174T, HepG2, Calu-3, Colo205) (human) (UniProt Q13443); assay: flow cytometry on LS174T cells, 3.906250 nM
[34] = target: ADAM9 on human tumour cells (LS174T, HepG2, Calu-3, Colo205) (human) (UniProt Q13443); assay: cell-based or functional assay
[35] = target: ADAM9 on human tumour cells (LS174T, HepG2, Calu-3, Colo205) (human) (UniProt Q13443); assay: flow cytometry on LS174T cells, 0.976563 nM
[36] = target: ADAM9 on human tumour cells (LS174T, HepG2, Calu-3, Colo205) (human) (UniProt Q13443); assay: flow cytometry on HepG2 cells, 62.5 nM
[37] = target: ADAM9 on human tumour cells (LS174T, HepG2, Calu-3, Colo205) (human) (UniProt Q13443); assay: flow cytometry on HepG2 cells, 250 nM
[38] = target: ADAM9 on human tumour cells (LS174T, HepG2, Calu-3, Colo205) (human) (UniProt Q13443); assay: flow cytometry on HepG2 cells, 3.906250 nM
[39] = target: ADAM9 on human tumour cells (LS174T, HepG2, Calu-3, Colo205) (human) (UniProt Q13443); assay: flow cytometry on HepG2 cells, 0.000954 nM
[40] = target: ADAM9 on human tumour cells (LS174T, HepG2, Calu-3, Colo205) (human) (UniProt Q13443); assay: flow cytometry on HepG2 cells, 15.625 nM
[41] = target: ADAM9 on human tumour cells (LS174T, HepG2, Calu-3, Colo205) (human) (UniProt Q13443); assay: flow cytometry on HepG2 cells, 0.244141 nM
[42] = target: ADAM9 on human tumour cells (LS174T, HepG2, Calu-3, Colo205) (human) (UniProt Q13443); assay: flow cytometry on HepG2 cells, 0.003815 nM
[43] = target: ADAM9 on human tumour cells (LS174T, HepG2, Calu-3, Colo205) (human) (UniProt Q13443); assay: flow cytometry on HepG2 cells, 0.061035 nM
[44] = target: ADAM9 on human tumour cells (LS174T, HepG2, Calu-3, Colo205) (human) (UniProt Q13443); assay: flow cytometry on HepG2 cells, 0.976563 nM
[45] = target: ADAM9 on human tumour cells (LS174T, HepG2, Calu-3, Colo205) (human) (UniProt Q13443); assay: flow cytometry on HepG2 cells, 0.015259 nM
[46] = target: ADAM9 on human tumour cells (LS174T, HepG2, Calu-3, Colo205) (human) (UniProt Q13443); assay: flow cytometry on HepG2 cells, 1000 nM
[47] = target: ADAM9 on human tumour cells (LS174T, HepG2, Calu-3, Colo205) (human) (UniProt Q13443); assay: flow cytometry on HepG2 cells, 0.000238 nM

ADAM9 on human tumour cells (LS174T, HepG2, Calu-3, Colo205) (human), sequence (Q13443 29-819): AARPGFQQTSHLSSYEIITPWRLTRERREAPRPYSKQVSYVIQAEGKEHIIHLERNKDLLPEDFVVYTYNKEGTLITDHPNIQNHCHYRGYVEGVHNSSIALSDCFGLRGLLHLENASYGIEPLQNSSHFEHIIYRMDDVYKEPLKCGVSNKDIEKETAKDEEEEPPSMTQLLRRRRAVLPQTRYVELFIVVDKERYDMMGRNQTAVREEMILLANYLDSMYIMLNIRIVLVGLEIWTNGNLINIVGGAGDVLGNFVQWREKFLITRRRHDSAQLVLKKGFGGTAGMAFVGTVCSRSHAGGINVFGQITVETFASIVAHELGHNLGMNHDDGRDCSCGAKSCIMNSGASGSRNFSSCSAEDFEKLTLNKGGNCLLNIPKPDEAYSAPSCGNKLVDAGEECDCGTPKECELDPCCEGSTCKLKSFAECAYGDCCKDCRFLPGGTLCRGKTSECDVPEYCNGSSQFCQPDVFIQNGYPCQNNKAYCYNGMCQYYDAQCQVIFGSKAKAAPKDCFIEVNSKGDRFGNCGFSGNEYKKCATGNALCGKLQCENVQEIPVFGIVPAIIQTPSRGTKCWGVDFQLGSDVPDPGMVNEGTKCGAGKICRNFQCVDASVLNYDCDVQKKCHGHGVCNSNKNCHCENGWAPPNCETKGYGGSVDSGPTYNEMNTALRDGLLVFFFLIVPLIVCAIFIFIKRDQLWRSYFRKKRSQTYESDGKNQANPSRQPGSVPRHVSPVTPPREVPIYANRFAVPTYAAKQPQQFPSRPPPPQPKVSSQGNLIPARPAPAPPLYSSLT

anti-HIV human IgG antibody (iso-IgG1, produced by WuXi AppTec)
Mean fluorescence intensity (MFI) [1]: 360
Mean fluorescence intensity (MFI) [2]: 361
Mean fluorescence intensity [3]: 368
Mean fluorescence intensity (MFI) [4]: 386
Mean fluorescence intensity [5]: 212
Mean fluorescence intensity (MFI) [6]: 363
Mean fluorescence intensity (MFI) [7]: 389
Mean fluorescence intensity [8]: 269
Mean fluorescence intensity [9]: 220
Mean fluorescence intensity [10]: 213
Mean fluorescence intensity (MFI) [11]: 371
Mean fluorescence intensity (MFI) [12]: 364
Mean fluorescence intensity [13]: 202
Mean fluorescence intensity (MFI) [14]: 365
Mean fluorescence intensity [15]: 254
Mean fluorescence intensity (MFI) [16]: 361
Mean fluorescence intensity [17]: 203
Mean fluorescence intensity [18]: 229
Mean fluorescence intensity [19]: 208
Mean fluorescence intensity (MFI) [20]: 377
Mean fluorescence intensity (MFI) [21]: 690
Mean fluorescence intensity (MFI) [22]: 349
Mean fluorescence intensity [23]: 209

B1: antibody-drug conjugate Ab16-X2 (antibody, human IgG1, kappa, V domains shown)
VH: QVQLQQPGTEVVKPGASVKLSCKASGFTFPLYWMHWVRQRPGRGLEWIGRIIPIFGHTKYNEKFKNKATLTADESSSTAYMELRSLTSDDSAVYYCARGGYYYYPREGFLDYWGQGTSVTVSS
VL: DIVMTQSPASLSVSPGERASISCRSSQSVDYSGDSYMNWYQQKPGQSPRLLIYAASDRESGVPDRFSGSGSGTDFTLKISRVEEEDAGTYYCQQSREDPFTFGQGTKVDIKR
modifications: linker-payload X2 (camptothecin type) conjugated after reduction with tris(2-carboxyethyl)phosphine; DAR p = 7.9; sites not given
Mean fluorescence intensity [24]: 223
Mean fluorescence intensity [25]: 2400
Mean fluorescence intensity [26]: 954
Mean fluorescence intensity [27]: 2130
Mean fluorescence intensity [28]: 268
Mean fluorescence intensity [29]: 1130
Mean fluorescence intensity [30]: 219
Mean fluorescence intensity [31]: 2160
Mean fluorescence intensity [32]: 447
Mean fluorescence intensity [33]: 2380
IC50 (nM) of proliferation inhibition, Calu-3 cells, CellTiter-Glo, 6 days [34]: 3.83 nM
IC50 (nM) of proliferation inhibition, Colo205 cells, CellTiter-Glo, 6 days [34]: 29.8 nM
IC50 (nM) of proliferation inhibition, LS174T cells, CellTiter-Glo, 6 days [34]: 8.97 nM
Mean fluorescence intensity [35]: 1960

B2: antibody-drug conjugate Ab16-X1 (antibody, human IgG1, kappa, V domains shown)
VH: B1 VH
VL: B1 VL
modifications: linker-payload X1 (camptothecin type) conjugated after reduction with tris(2-carboxyethyl)phosphine; DAR p = 7.8; sites not given
Mean fluorescence intensity (MFI) [36]: 3290
Mean fluorescence intensity (MFI) [37]: 16600
Mean fluorescence intensity (MFI) [38]: 1780
Mean fluorescence intensity (MFI) [39]: 376
Mean fluorescence intensity (MFI) [40]: 2960
Mean fluorescence intensity (MFI) [41]: 1090
Mean fluorescence intensity (MFI) [42]: 396
Mean fluorescence intensity (MFI) [43]: 623
Mean fluorescence intensity (MFI) [44]: 1790
Mean fluorescence intensity (MFI) [45]: 451
Mean fluorescence intensity (MFI) [46]: 17400
Mean fluorescence intensity (MFI) [47]: 370
IC50 (nM) of proliferation inhibition, Calu-3 cells, CellTiter-Glo, 6 days [34]: 8.6 nM
